Entries after “also recorded” stand apart in the source; their conditions may differ.
Test system: perivascular macrophages (PVMs)
Experiment: M-CSF treatment of aged mice: OVA tracer diffusion/coverage (CSF flow)
Assay type: in vivo
Method: FIG. 3U is a schematic diagram summarizing an experimental design to determine the effect of M-CSF treatment on CSF flow in aged mice.
FIG. 7D is a schematic diagram summarizing an experimental design wherein old mice were treated with M-CSF (or aCSF as a control group). Six hours after treatment, mice received OVA via ICM injection, and brains were harvested one hour after OVA diffusion.
First, it was observed that tracer diffusion in aged mice (24-month-old) was impaired compared to young/adult mice (3-month-old) (FIGS. 7A, 7B, 7C, 7D, 7E, and 7F).

B1: macrophage colony stimulating factor (protein, UniProt P07141 33-552, looked up)
Macrophage colony-stimulating …: KEVSEHCSHMIGNGHLKVLQQLIDSQMETSCQIAFEFVDQEQLDDPVCYLKKAFFLVQDIIDETMRFKDNTPNANATERLQELSNNLNSCFTKDYEEQNKACVRTFHETPLQLLEKIKNFFNETKNLLEKDWNIFTKNCNNSFAKCSSRDVVTKPDCNCLYPKATPSSDPASASPHQPPAPSMAPLAGLAWDDSQRTEGSSLLPSELPLRIEDPGSAKQRPPRSTCQTLESTEQPNHGDRLTEDSQPHPSAGGPVPGVEDILESSLGTNWVLEEASGEASEGFLTQEAKFSPSTPVGGSIQAETDRPRALSASPFPKSTEDQKPVDITDRPLTEVNPMRPIGQTQNNTPEKTDGTSTLREDHQEPGSPHIATPNPQRVSNSATPVAQLLLPKSHSWGIVLPLGELEGKRSTRDRRSPAELEGGSASEGAARPVARFNSIPLTDTGHVEQHEGSSDPQIPESVFHLLVPGIILVLLTVGGLLFYKWKWRSHRDPQTLDSSVGRPEDSSLTQDEDRQVELPV
- OVA tracer diffusion/coverage through the brain (aged (24-month-old) mice, OVA ICM six hours after ICM M-CSF, brains harvested one hour later, vs aCSF): improved tracer diffusion through the brain tissue; also recorded: increase in OVA diffusion/coverage compared to aCSF-treated mice; also recorded: improved perfusion of the brains in older mice
- state of perivascular macrophages (older mice, ICM injection): rejuvenated the perivascular macrophages

From US20240415930A1, “COMPOSITIONS AND METHODS FOR ENHANCING BRAIN PERFUSION” (Washington University, priority 2021, published 2024)
